According to publication PMC11917138, “A naturally occurring standalone TrpB enzyme provides insights into allosteric communication within tryptophan synthase” (Protein Science : A Publication of the Protein Society, 2025):

Legend:
[1] = molecular target: plTrpB, tryptophan synthase β subunit (TrpB) from Pelodictyon luteolum (Pelodictyon luteolum); assay: SEC; analytical SEC, Superdex200 increase 10/300 GL; plTrpA 75 μM, plTrpB or plTrpB-con 50 μM, alone or mixed; 50 mM potassium phosphate pH 7.5, 300 mM KCl, 75 mM L-serine, 25°C
[2] = molecular target: plTrpB, tryptophan synthase β subunit (TrpB) from Pelodictyon luteolum (Pelodictyon luteolum); assay: activity titration; apparent Kd; varying plTrpA added to 2 μM plTrpB or plTrpB-con, TrpB reaction rate read at 290 nm; 30°C, 50 mM potassium phosphate pH 7.5, 180 mM KCl, 40 μM PLP, 75 mM L-serine, 1 mM indole; hyperbolic fit; duplicates
[3] = molecular target: plTrpB‐con, plTrpB with the six LBCA-Res6 residues replaced by consensus residues (Pelodictyon luteolum); assay: as above
[4] = molecular target: plTrpB‐con, plTrpB with the six LBCA-Res6 residues replaced by consensus residues (Pelodictyon luteolum)
[5] = molecular target: plTrpB, tryptophan synthase β subunit (TrpB) from Pelodictyon luteolum (Pelodictyon luteolum)
[6] = molecular target: plTrpB, tryptophan synthase β subunit (TrpB) from Pelodictyon luteolum (Pelodictyon luteolum); remark: listed apart in the source
[7] = molecular target: plTrpB‐con, plTrpB with the six LBCA-Res6 residues replaced by consensus residues (Pelodictyon luteolum); remark: listed apart in the source
purified protein = substrate: c1ccc2[nH]ccc2c1; assay: purified protein; assay type: biochemical, Pelodictyon luteolum; settings: saturating L-serine, 50 mM potassium phosphate pH 7.5, 180 mM KCl, 40 μM PLP, 30°C
[8] = 1.5-fold molar excess of plTrpA

Molecule: plTrpB, tryptophan synthase β subunit (TrpB) from Pelodictyon luteolum (from UniProt A0A1G7SST0 1-406) (enzyme)
- stoichiometry N [1]: 2

Molecule: plTrpA, tryptophan synthase α subunit (TrpA) from Pelodictyon luteolum (from UniProt A0A1G7SSP5 1-275) (enzyme)
- Kd [2]: 8.5 µM
- Kd [3]: 9.9 µM
- fold activation of k cat of plTrpB-con by plTrpA [4]: 23 fold
- fold activation of k cat/K M ^Ind of plTrpB-con by plTrpA [4]: 3.6 fold
- fold activation of k cat/K M ^Ser of plTrpB-con by plTrpA [4]: > 10000 fold
- fold activation of k cat of plTrpB by plTrpA [5]: 2.7 fold
- fold activation of k cat/K M ^Ind of plTrpB by plTrpA [5]: 1.6 fold
- fold activation of k cat/K M ^Ser of plTrpB by plTrpA [5]: 9.8 fold
- k cat of the TrpB reaction of plTrpB with a 1.5-fold molar excess of plTrpA, 30°C [6]: 0.93 s⁻¹
- k cat of the TrpB reaction of plTrpB-con with a 1.5-fold molar excess of plTrpA, 30°C [7]: 0.21 s⁻¹

B1: plTrpB (Pelodictyon luteolum DSM 273) (protein)
chain: MSTTAYSAPDSAGKFGAFGGRFTPETLMQNAAGLEAEYLKAKSDPEFQRTLEGLLGDYVGRPTPLYHAEGLSGMLGGAEVWLKREDLCHTGAHKINNALGQVLLARRMGKRRVIAETGAGQHGVATATVCALFNLQCVVYMGEEDIRRQAPNVARMKLLGAEVRPVSSGSRTLKDATSEAIRDWMNNPEETFYIIGSVVGMHPYPMIVRDFQAVIGRETRRQILDKAGRLPDVITACIGGGSNAVGMFYDFLPDAGSIELIGVEAAGEGLDRRHAASLTMGSPGVLHGAMTMLLQNEDGQIQEAHSISAGLDYPGVGPEHCHLQELGLVKYTSVTDADALSALRTLAETEGIICALESAHAVRYAITRAPEMAKDKIIIVNLSGRGDKDMGTIMEELNL
notes: full-length, C-terminal His6-tag kept, codon-optimized gene in pET21a, E. coli BL21 Gold (DE3); beta-beta dimer
- Km (purified protein; no plTrpA): 39 ± 7 µM
- kcat (purified protein; no plTrpA): 0.35 ± 0.02 s⁻¹
- kcat/Km (purified protein; no plTrpA): 8970 ± 1720 M⁻¹ s⁻¹

B2: plTrpA:plTrpB (Pelodictyon luteolum DSM 273) (protein)
chain: B1 chain
notes: both full-length with C-terminal His6-tag, E. coli BL21 Gold (DE3); alpha-beta-beta-alpha complex, partly formed; with Tryptophan synthase alpha chain
- Km (purified protein; [8]): 65 ± 7 µM
- kcat (purified protein; [8]): 0.93 ± 0.21 s⁻¹
- kcat/Km (purified protein; [8]): 14300 ± 3510 M⁻¹ s⁻¹
